Test results published in patent US20250368754A1 (KANAPH THERAPEUTICS, published 2025).

T1: human FAP on HEK293-hFAP cells (human, UniProt Q12884 1-760)
T1 construct: whole, on cells; also called human FAP-expressing cell line
T1 sequence (looked up): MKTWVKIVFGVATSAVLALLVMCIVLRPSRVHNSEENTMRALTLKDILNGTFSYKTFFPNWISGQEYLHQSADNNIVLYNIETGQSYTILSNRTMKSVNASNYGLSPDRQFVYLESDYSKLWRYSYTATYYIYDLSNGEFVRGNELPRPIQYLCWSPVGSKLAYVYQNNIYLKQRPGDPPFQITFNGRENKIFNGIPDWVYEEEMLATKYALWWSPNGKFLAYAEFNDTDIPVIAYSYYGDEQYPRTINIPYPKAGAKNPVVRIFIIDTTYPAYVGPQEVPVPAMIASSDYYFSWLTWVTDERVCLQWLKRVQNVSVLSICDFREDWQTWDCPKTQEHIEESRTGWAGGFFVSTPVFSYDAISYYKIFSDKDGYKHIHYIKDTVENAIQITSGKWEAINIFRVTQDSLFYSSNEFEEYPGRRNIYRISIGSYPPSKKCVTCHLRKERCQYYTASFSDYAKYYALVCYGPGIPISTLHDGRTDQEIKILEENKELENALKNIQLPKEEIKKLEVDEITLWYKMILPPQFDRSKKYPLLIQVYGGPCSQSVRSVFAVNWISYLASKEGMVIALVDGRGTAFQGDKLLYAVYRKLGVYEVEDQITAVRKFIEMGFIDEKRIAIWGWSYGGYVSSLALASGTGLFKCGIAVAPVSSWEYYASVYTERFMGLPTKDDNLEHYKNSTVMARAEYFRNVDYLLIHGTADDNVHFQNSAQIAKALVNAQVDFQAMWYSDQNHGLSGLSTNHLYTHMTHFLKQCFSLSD

T2: recombinant human herpes virus entry mediator (HVEM) (human, UniProt Q92956 39-202)
T2 construct: neither construct is described; also called human HVEM; recombinant human HVEM protein (R&D systems)
T2 sequence (looked up): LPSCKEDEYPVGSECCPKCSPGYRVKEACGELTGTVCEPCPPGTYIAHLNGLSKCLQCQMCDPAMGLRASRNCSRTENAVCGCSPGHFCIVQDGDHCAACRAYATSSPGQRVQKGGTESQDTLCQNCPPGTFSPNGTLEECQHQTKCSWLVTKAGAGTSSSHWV


Key:
human LTβR on A375 cells [1] = molecular target: T3, human LTβR on A375 cells (human, UniProt P36941 31-435); test: cell-based or functional assay
[2] = molecular target: T1, human FAP on HEK293-hFAP cells; test: flow cytometry on HEK293-hFAP cells, 1 µg protein, anti-human IgG detection
How it was run: (§1)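 HEK293-hFAP cells, 1×10⁵ per 100 μL FACS buffer, incubated with 1 μg antibody, washed twice, then stained with anti-human IgG. Negative control received secondary antibody only. Stained-cell ratio measured by flow cytometry.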

human LTβR on A375 cells [3] = molecular target: T3, human LTβR on A375 cells; test: flow cytometry on A375 cells, serial dilution from 500 nM, anti-human IgG detection
Description: Specifically, the A375 cell line was prepared by suspending in a FACS buffer solution at 1×10⁵ cells/100 μL, and treated with 100 μL each of T3.01, T3.07, T3.04, and T3.18 prepared by suspending at 500 nM and diluting by serial dilution. The cells were washed twice with a FACS buffer solution. The cells were stained with an anti-human IgG antibody (Biolegend). The expression ratio of the stained cells was measured using BD LSR and analyzed using FlowJo software.

[4] = molecular target: T2, recombinant human herpes virus entry …; test: SPR, human HVEM immobilised on CM5, fusion protein as analyte, 1:1 binding model
Description: (§2) Specifically, the surface of the CM5 chip was activated with a 1:1 mixture of […], and 5 to 6 μg/mL of human HVEM was immobilized for 60 seconds at a rate of 10 μL/min. The remaining active ester groups were blocked with 1 M ethanolamine. T3.01, T3.07, T3.09, T3.14, and T3.18 were each diluted to 100 nM in 1×HBS-EP+buffer solution and diluted by serial dilution. The diluted fusion proteins were reacted at a rate of 30 μL/min. The association and dissociation times were 180 seconds and 400 seconds, respectively. After the dissociation step, stabilization was performed for 60 seconds, and then the regeneration step was performed for 30 seconds with a 10 mM glycine pH 1.5 solution at a rate of 30 μL/min.

[5] = molecular target: T1, human FAP on HEK293-hFAP cells; test: flow cytometry on HEK293-hFAP cells, 1 ug protein per 1x10^5 cells, anti-human IgG detection (axis TMEkine-PE)
How it was run: as §1

[6] = molecular target: T2, recombinant human herpes virus entry …; test: SPR, human HVEM immobilised on the chip (title: PRO096; 6ug/ml human HVEM pH5.5), T3.14 as analyte 0.78125-100 nM
Description: as §2

T3 sequence (P36941 31-435): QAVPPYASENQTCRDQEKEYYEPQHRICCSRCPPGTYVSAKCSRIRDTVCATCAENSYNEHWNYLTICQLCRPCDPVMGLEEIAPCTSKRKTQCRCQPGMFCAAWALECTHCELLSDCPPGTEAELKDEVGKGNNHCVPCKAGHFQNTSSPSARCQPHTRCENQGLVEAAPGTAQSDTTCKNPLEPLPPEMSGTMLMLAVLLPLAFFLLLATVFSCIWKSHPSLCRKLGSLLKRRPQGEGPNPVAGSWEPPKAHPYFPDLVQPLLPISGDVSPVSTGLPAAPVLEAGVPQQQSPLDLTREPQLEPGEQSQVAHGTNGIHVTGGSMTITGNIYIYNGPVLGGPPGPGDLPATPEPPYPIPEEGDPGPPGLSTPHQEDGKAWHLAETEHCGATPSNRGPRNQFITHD

Binder	IL-8 secretion of A375 cells, EC50 (FIG. 15a) (human LTβR on A375 cells [1]) [nM]	IL-8 secretion of A375 cells, EC50 (FIG. 15b) (human LTβR on A375 cells [1]) [nM]	percent of cells bound [2] [%]	percent of cells bound (human LTβR on A375 cells [3]) [%]	Kd [4] [nM]	koff [4] [s⁻¹]	kon [4] [M⁻¹ s⁻¹]	percent of cells in the positive gate [5] [%]	binding result [6]
T3.01 (anti-hu FAP/hu scLIGHT3, hu IgG1 DANG) (bispecific antibody, Knob-into-hole heterodimer: one anti-FAP Fab arm and one single-chain human LIGHT (91-240) homotrimer arm) heavy: QVQLVQSGAEVKKPGASVKVSCKTSRYTFTEYTIHWVRQAPGQRLEWIGGINPNNGIPNYNQKFKGRVTITVDTSASTAYMELSSLRSEDTAVYYCARRRIAYGYDEGHAMDYWGQGTLVTVSSASTKGPSVFPLAPSSKSTSGGTAALGCLVKDYFPEPVTVSWNSGALTSGVHTFPAVLQSSGLYSLSSVVTVPSSSLGTQTYICNVNHKPSNTKVDKKVEPKSCDKTHTCPPCPAPELLGGPSVFLFPPKPKDTLMISRTPEVTCVVVAVSHEDPEVKFNWYVDGVEVHNAKTKPREEQYGSTYRVVSVLTVLHQDWLNGKEYKCKVSNKALPAPIEKTISKAKGQPREPQVYTLPPSRDELTKNQVSLWCLVKGFYPSDIAVEWESNGQPENNYKTTPPVLDSDGSFFLYSKLTVDKSRWQQGNVFSCSVMHEALHNHYTQKSLSLSPGK light: not shown not shown	0.0368	0.0469	≥ 99	≥ 96	4.24	0.00119	281000	99.5	
T3.14 (anti-hu FAP/hu scLIGHT-LTb2, hu IgG1 DANG) (bispecific antibody, Knob-into-hole; single-chain heterotrimer of one human LIGHT and two human lymphotoxin beta (87-243)) heavy: QVQLVQSGAEVKKPGASVKVSCKTSRYTFTEYTIHWVRQAPGQRLEWIGGINPNNGIPNYNQKFKGRVTITVDTSASTAYMELSSLRSEDTAVYYCARRRIAYGYDEGHAMDYWGQGTLVTVSSASTKGPSVFPLAPSSKSTSGGTAALGCLVKDYFPEPVTVSWNSGALTSGVHTFPAVLQSSGLYSLSSVVTVPSSSLGTQTYICNVNHKPSNTKVDKKVEPKSCDKTHTCPPCPAPELLGGPSVFLFPPKPKDTLMISRTPEVTCVVVAVSHEDPEVKFNWYVDGVEVHNAKTKPREEQYGSTYRVVSVLTVLHQDWLNGKEYKCKVSNKALPAPIEKTISKAKGQPREPQVYTLPPSRDELTKNQVSLWCLVKGFYPSDIAVEWESNGQPENNYKTTPPVLDSDGSFFLYSKLTVDKSRWQQGNVFSCSVMHEALHNHYTQKSLSLSPGK light: not shown not shown	0.0558		≥ 99					99.9	no binding (tested: 100 nM)
